Tests used:
Experiment in all cases: cell-based or functional assay
[1] = target: HIV-1 Env of isolate 92TH021 (subtype AE) (HIV-1)
[2] = target: HIV-1 Env of isolate 92UG031 (subtype A) (HIV-1)
[3] = target: HIV-1 Env of isolate 92UG037 (subtype A) (HIV-1)
[4] = target: HIV-1 Env of isolate 92UG114 (subtype D) (HIV-1)
[5] = target: HIV-1 Env of isolate 92WR009 (subtype A) (HIV-1)
[6] = target: HIV-1 Env of isolate 92WR020 (subtype A) (HIV-1)
[7] = target: HIV-1 Env of isolate 92WR021 (subtype A) (HIV-1)
[8] = target: HIV-1 Env of isolate 92WR024 (subtype A) (HIV-1)
[9] = target: HIV-1 Env of isolate 92WR026 (subtype A) (HIV-1)
[10] = target: HIV-1 Env of isolate 93UG077 (subtype A) (HIV-1)
[11] = target: HIV-1 Env of isolate 93WR029 (subtype A) (HIV-1)
[12] = target: HIV-1 Env of isolate 94 KE 105 (subtype AC) (HIV-1)
[13] = target: HIV-1 Env of isolate 94UG103 (subtype A) (HIV-1)
[14] = target: HIV-1 Env of isolate CMU02 (subtype AE) (HIV-1)
[15] = target: HIV-1 Env of isolate MGRM-AE-001 (subtype AE) (HIV-1)
[16] = target: HIV-1 Env of isolate MGRM-AE-002 (subtype AE) (HIV-1)
[17] = target: HIV-1 Env of isolate MGRM-AE-003 (subtype AE) (HIV-1)
[18] = target: HIV-1 Env of isolate MGRM-AE-004 (subtype AE) (HIV-1)
[19] = target: HIV-1 Env of isolate MGRM-AE-005 (subtype AE) (HIV-1)
[20] = target: HIV-1 Env of isolate MGRM-AE-006 (subtype AE) (HIV-1)
[21] = target: HIV-1 Env of isolate MGRM-AE-007 (subtype AE) (HIV-1)
[22] = target: HIV-1 Env of isolate MGRM-AE-008 (subtype AE) (HIV-1)
[23] = target: HIV-1 Env of isolate MGRM-D-001 (subtype D) (HIV-1)
[24] = target: HIV-1 Env of isolate MGRM-D-002 (subtype D) (HIV-1)
[25] = target: HIV-1 Env of isolate MGRM-D-003 (subtype D) (HIV-1)
[26] = target: HIV-1 Env of isolate MGRM-D-004 (subtype D) (HIV-1)
[27] = target: HIV-1 Env of isolate MGRM-D-005 (subtype D) (HIV-1)
[28] = target: HIV-1 Env of isolate MGRM-D-008 (subtype D) (HIV-1)
[29] = target: HIV-1 Env of isolate MGRM-D-011 (subtype D) (HIV-1)
[30] = target: HIV-1 Env of isolate MGRM-D-012 (subtype D) (HIV-1)
[31] = target: HIV-1 Env of isolate MGRM-D-013 (subtype D) (HIV-1)
[32] = target: HIV-1 Env of isolate MGRM-D-014 (subtype D) (HIV-1)
[33] = target: HIV-1 Env of isolate MGRM-D-016 (subtype D) (HIV-1)
[34] = target: HIV-1 Env of isolate MGRM-D-018 (subtype D) (HIV-1)
[35] = target: HIV-1 Env of isolate MGRM-D-019 (subtype D) (HIV-1)
[36] = target: HIV-1 Env of isolate MGRM-D-020 (subtype D) (HIV-1)
[37] = target: HIV-1 Env of isolate MGRM-D-021 (subtype D) (HIV-1)
[38] = target: HIV-1 Env of isolate MGRM-D-022 (subtype D) (HIV-1)
[39] = target: HIV-1 Env of isolate MGRM-D-024 (subtype D) (HIV-1)
[40] = target: HIV-1 Env of isolate MGRM-D-026 (subtype D) (HIV-1)
[41] = target: HIV-1 Env of isolate MGRM-D-028 (subtype D) (HIV-1)
[42] = target: HIV-1 Env of isolate MGRM-D-029 (subtype D) (HIV-1)
[43] = target: HIV-1 Env of isolate MGRM-F1-004 (subtype F) (HIV-1)
[44] = target: HIV-1 Env of isolate MGRM-F1-006 (subtype F) (HIV-1)
[45] = target: HIV-1 Env of isolate MGRM-F1-008 (subtype F) (HIV-1)
[46] = target: HIV-1 Env of isolate MGRM-F1-010 (subtype F) (HIV-1)
[47] = target: HIV-1 Env of isolate MGRM-F1-012 (subtype F) (HIV-1)
[48] = target: HIV-1 Env of isolate MGRM-F1-013 (subtype F) (HIV-1)
[49] = target: HIV-1 Env of isolate MGRM-F1-014 (subtype F) (HIV-1)
[50] = target: HIV-1 Env of isolate MGRM-F1-015 (subtype F) (HIV-1)
[51] = target: HIV-1 Env of isolate MGRM-F1-016 (subtype F) (HIV-1)
[52] = target: HIV-1 Env of isolate MGRM-F1-017 (subtype F) (HIV-1)
[53] = target: HIV-1 Env of isolate MGRM-F1-018 (subtype F) (HIV-1)
[54] = target: HIV-1 Env of isolate MGRM-F1-020 (subtype F) (HIV-1)
[55] = target: HIV-1 Env of isolate MGRM-F1-021 (subtype F) (HIV-1)
[56] = target: HIV-1 Env of isolate MGRM-F1-022 (subtype F) (HIV-1)
[57] = target: HIV-1 Env of isolate MGRM-F1-023 (subtype F) (HIV-1)
[58] = target: HIV-1 Env of isolate VLGCA1 (subtype A) (HIV-1)

PGT-141 (4964_G22; 4993_K13) (antibody), sequence (VH): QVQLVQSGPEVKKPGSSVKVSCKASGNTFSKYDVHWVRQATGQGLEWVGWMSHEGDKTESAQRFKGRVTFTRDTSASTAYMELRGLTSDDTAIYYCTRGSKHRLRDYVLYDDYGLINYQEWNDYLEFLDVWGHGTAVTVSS
PGT-141 (4964_G22; 4993_K13) (antibody), sequence (VL): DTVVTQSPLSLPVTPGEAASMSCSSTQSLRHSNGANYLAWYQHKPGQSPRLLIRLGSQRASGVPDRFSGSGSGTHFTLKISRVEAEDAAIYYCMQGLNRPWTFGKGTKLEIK

Question: For PGT-141 (4964_G22; 4993_K13) (antibody), which IC50 (pseudovirus neutralization) [1] is on record?
Answer: The IC50 (pseudovirus neutralization) was 0.001 µg/mL.

Question: What about the IC50 (pseudovirus neutralization) [2] of the same substance?
Answer: The IC50 (pseudovirus neutralization) was 0.093 µg/mL.

Question: What about the IC50 (pseudovirus neutralization) [3] of the same substance?
Answer: The IC50 (pseudovirus neutralization) was 1.28 µg/mL.

Question: What about the IC50 (pseudovirus neutralization) [4] of the same substance?
Answer: The IC50 (pseudovirus neutralization) was > 50 µg/mL.

Question: And the IC50 (pseudovirus neutralization) [5]?
Answer: The IC50 (pseudovirus neutralization) was 0.022 µg/mL.

Question: And the IC50 (pseudovirus neutralization) [6]?
Answer: Its IC50 (pseudovirus neutralization) is > 50 µg/mL.

Question: And the IC50 (pseudovirus neutralization) [7]?
Answer: Its IC50 (pseudovirus neutralization) is > 50 µg/mL.

Question: What about the IC50 (pseudovirus neutralization) [8] of the same substance?
Answer: Its IC50 (pseudovirus neutralization) is 0.175 µg/mL.

Question: And the IC50 (pseudovirus neutralization) [9]?
Answer: Its IC50 (pseudovirus neutralization) is 1.78 µg/mL.

Question: And the IC50 (pseudovirus neutralization) [10]?
Answer: The IC50 (pseudovirus neutralization) was > 50 µg/mL.

Question: What about the IC50 (pseudovirus neutralization) [11] of the same substance?
Answer: The IC50 (pseudovirus neutralization) was 0.019 µg/mL.

Question: What about the IC50 (pseudovirus neutralization) [12] of the same substance?
Answer: The IC50 (pseudovirus neutralization) was 0.204 µg/mL.

Question: And the IC50 (pseudovirus neutralization) [13]?
Answer: Its IC50 (pseudovirus neutralization) is > 50 µg/mL.

Question: What about the IC50 (pseudovirus neutralization) [14] of the same substance?
Answer: The IC50 (pseudovirus neutralization) was > 50 µg/mL.

Question: What about the IC50 (pseudovirus neutralization) [15] of the same substance?
Answer: The IC50 (pseudovirus neutralization) was > 50 µg/mL.

Question: What about the IC50 (pseudovirus neutralization) [16] of the same substance?
Answer: Its IC50 (pseudovirus neutralization) is > 50 µg/mL.

Question: What about the IC50 (pseudovirus neutralization) [17] of the same substance?
Answer: The IC50 (pseudovirus neutralization) was > 50 µg/mL.

Question: And the IC50 (pseudovirus neutralization) [18]?
Answer: Its IC50 (pseudovirus neutralization) is 0.001 µg/mL.

Question: And the IC50 (pseudovirus neutralization) [19]?
Answer: Its IC50 (pseudovirus neutralization) is > 50 µg/mL.

Question: And the IC50 (pseudovirus neutralization) [20]?
Answer: Its IC50 (pseudovirus neutralization) is > 50 µg/mL.

Question: And the IC50 (pseudovirus neutralization) [21]?
Answer: Its IC50 (pseudovirus neutralization) is 33.1 µg/mL.

Question: And the IC50 (pseudovirus neutralization) [22]?
Answer: The IC50 (pseudovirus neutralization) was 0.101 µg/mL.

Question: And the IC50 (pseudovirus neutralization) [23]?
Answer: Its IC50 (pseudovirus neutralization) is > 50 µg/mL.

Question: What about the IC50 (pseudovirus neutralization) [24] of the same substance?
Answer: The IC50 (pseudovirus neutralization) was > 50 µg/mL.

Question: And the IC50 (pseudovirus neutralization) [25]?
Answer: Its IC50 (pseudovirus neutralization) is > 50 µg/mL.

Question: What about the IC50 (pseudovirus neutralization) [26] of the same substance?
Answer: Its IC50 (pseudovirus neutralization) is > 50 µg/mL.

Question: What about the IC50 (pseudovirus neutralization) [27] of the same substance?
Answer: The IC50 (pseudovirus neutralization) was 5.15 µg/mL.

Question: And the IC50 (pseudovirus neutralization) [28]?
Answer: The IC50 (pseudovirus neutralization) was 0.371 µg/mL.

Question: What about the IC50 (pseudovirus neutralization) [29] of the same substance?
Answer: Its IC50 (pseudovirus neutralization) is > 50 µg/mL.

Question: And the IC50 (pseudovirus neutralization) [30]?
Answer: The IC50 (pseudovirus neutralization) was > 50 µg/mL.

Question: And the IC50 (pseudovirus neutralization) [31]?
Answer: The IC50 (pseudovirus neutralization) was 0.179 µg/mL.

Question: And the IC50 (pseudovirus neutralization) [32]?
Answer: The IC50 (pseudovirus neutralization) was 0.01 µg/mL.

Question: What about the IC50 (pseudovirus neutralization) [33] of the same substance?
Answer: Its IC50 (pseudovirus neutralization) is > 50 µg/mL.

Question: And the IC50 (pseudovirus neutralization) [34]?
Answer: Its IC50 (pseudovirus neutralization) is > 50 µg/mL.

Question: And the IC50 (pseudovirus neutralization) [35]?
Answer: Its IC50 (pseudovirus neutralization) is 1.66 µg/mL.

Question: And the IC50 (pseudovirus neutralization) [36]?
Answer: Its IC50 (pseudovirus neutralization) is > 50 µg/mL.

Question: And the IC50 (pseudovirus neutralization) [37]?
Answer: The IC50 (pseudovirus neutralization) was > 50 µg/mL.

Question: And the IC50 (pseudovirus neutralization) [38]?
Answer: Its IC50 (pseudovirus neutralization) is > 50 µg/mL.

Question: And the IC50 (pseudovirus neutralization) [39]?
Answer: Its IC50 (pseudovirus neutralization) is > 50 µg/mL.

Question: What about the IC50 (pseudovirus neutralization) [40] of the same substance?
Answer: Its IC50 (pseudovirus neutralization) is 32.5 µg/mL.

Question: And the IC50 (pseudovirus neutralization) [41]?
Answer: Its IC50 (pseudovirus neutralization) is > 50 µg/mL.

Question: What about the IC50 (pseudovirus neutralization) [42] of the same substance?
Answer: The IC50 (pseudovirus neutralization) was 0.057 µg/mL.

Question: What about the IC50 (pseudovirus neutralization) [43] of the same substance?
Answer: The IC50 (pseudovirus neutralization) was 0.021 µg/mL.

Question: What about the IC50 (pseudovirus neutralization) [44] of the same substance?
Answer: Its IC50 (pseudovirus neutralization) is 8.99 µg/mL.

Question: And the IC50 (pseudovirus neutralization) [45]?
Answer: Its IC50 (pseudovirus neutralization) is 0.193 µg/mL.

Question: And the IC50 (pseudovirus neutralization) [46]?
Answer: The IC50 (pseudovirus neutralization) was > 50 µg/mL.

Question: And the IC50 (pseudovirus neutralization) [47]?
Answer: The IC50 (pseudovirus neutralization) was > 50 µg/mL.

Question: What about the IC50 (pseudovirus neutralization) [48] of the same substance?
Answer: Its IC50 (pseudovirus neutralization) is 0.043 µg/mL.

Question: And the IC50 (pseudovirus neutralization) [49]?
Answer: Its IC50 (pseudovirus neutralization) is 0.001 µg/mL.

Question: What about the IC50 (pseudovirus neutralization) [50] of the same substance?
Answer: The IC50 (pseudovirus neutralization) was > 50 µg/mL.

Question: And the IC50 (pseudovirus neutralization) [51]?
Answer: The IC50 (pseudovirus neutralization) was > 50 µg/mL.

Question: And the IC50 (pseudovirus neutralization) [52]?
Answer: Its IC50 (pseudovirus neutralization) is 30.8 µg/mL.

Question: What about the IC50 (pseudovirus neutralization) [53] of the same substance?
Answer: The IC50 (pseudovirus neutralization) was 0.785 µg/mL.

Question: What about the IC50 (pseudovirus neutralization) [54] of the same substance?
Answer: The IC50 (pseudovirus neutralization) was 1.15 µg/mL.

Question: And the IC50 (pseudovirus neutralization) [55]?
Answer: The IC50 (pseudovirus neutralization) was > 50 µg/mL.

Question: And the IC50 (pseudovirus neutralization) [56]?
Answer: Its IC50 (pseudovirus neutralization) is 0.114 µg/mL.

Question: What about the IC50 (pseudovirus neutralization) [57] of the same substance?
Answer: The IC50 (pseudovirus neutralization) was 0.307 µg/mL.

Question: What about the IC50 (pseudovirus neutralization) [58] of the same substance?
Answer: The IC50 (pseudovirus neutralization) was 2.07 µg/mL.

— US20160264649A1
